Measurements: the nanobody polyreactivity screen of Harvey et al. (2022)

experiment: yeast display, Sf9 membrane polyspecificity reagent, FACS + sequencing; frameworks hold sequencing errors
Outline: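 A synthetic nanobody library was expressed on Saccharomyces cerevisiae BJ5465 by galactose induction for 36–48 hours. The library was stained for 1 hour at 4 °C with 10% biotinylated, detergent-solubilized Sf9 membrane reagent and enriched with streptavidin microbeads before FACS. Low and high (top ~1%) gates were set on anti-HA fluorescence for expression and streptavidin fluorescence for reagent binding, and each polyreactivity label reflects the gate of origin.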

| Sequence | polyreactivity (PSR sort gate) |
| --- | --- |
| QVQLVESGGGLVQAGGSLRLSCAASGSIFGVYTMGWYRQAPGKERELVAAIRGVGSTNYADSVKGRFTISRDNAKNTVYLQMNSLKPEDTAVYYCASRYAYGMWGQGTQVTVSS | low polyreactivity |
| QVQLVESGGGLVQAGGSLRLSCAASGLTFPDYAMGWYRQAPGKERELVAAITIDGSTYYADSVKGRFTISRDNAKNTVYLQMNSLTPEDTAVYYCNAQVGVPYAMYYWGQGTQVTVSS | low polyreactivity |
| QVQLVESGGGLVQAGGSLRLSCAASGRIFVRYAMGWYRQAPGKERELVASIRSGGSTNYADSVKGRFTISRDNAKNTVYLQMNSLKPEDTAVYYCAAVLRPVRFYSGYYYWGQGTQVTVSS | high polyreactivity |
| QVQLQESGGGLVQGGGSLRLSCAASGSNYRSWYMGWYRQAPGKERELVASITEGATTNYAYSVKAALPLAAITRNTVYLQMDSMKPEDTAVYYRAASFGSTYDLVYWGQGTQVTVSS | high polyreactivity |
| QVQLVESGGGLVQAGGSIPLTCAASGRTLWGYAMGWYSQAPGKEREMVAAITSGGSTYYADSVKGRFTISRDNAKYYVYLQMNSLKPEDTAVDYCNAVTSIQTSYPSNWGMMDYWGQGSQVTVSS | low polyreactivity |
| QVQLVESGGGLVQAGGSLRLSCAASGSIIPRNAMGWYRQAPGKEMELVAAIRKSGGSTYYADSVKGRFTFCRDIAKNTVYLQMNSLKPEDTAVYYCAKPYYVPSWLSPIYNYWGQGTQVTESS | low polyreactivity |
| QFQLVESGGGLVQAGGSLRLSCAASGFTFYPYAMGWSRQAPGKERELVAAITRSGTSTFYADSVKGRFTISRDNAKNTVYLQMNSLKPEDTAVYYCAKGYFFVGTDWESYYWGQGTQVTVSS | low polyreactivity |
| QVQLVESGGGLVQAGGSLRLSCAASGSIFSRYAMGWYRPAPGKERELVAAISRSTGSTYYADSVKGRFTISRDNAKNTVYLQMNSLKPEDTAVYYCAAKWIRWGYVSSNSRFGYWGQGTQVTVSS | high polyreactivity |
| QVQLVESGGGLVQAGGSLRLSCAASGSIFRYYTMGWYRQAPGKERELVARISSSGSTNYADSVKGRFTISRDNAKNTVYLQMNSLKPEDTAVYYCAARSFSWAGYYYWGQGTQVTVSS | low polyreactivity |
| QVQLVESGGGLVQAGGSLRLSSAASGRTFTTYAMGWYRQAHGKERELVAAISGSGGSTYYADSVKGRFTISRDNAKNTVYLQMNSLKPEDTAVYYCATAYYYHGGYYYPYDDYWGQGTQVTVSS | low polyreactivity |
| QVQLVESGGGLVQAGGSLRLSCAASGRIFNQYGMGWYRQAPGKERELVASITGSGGTTYYADSVKGRFTISRDNAKNTVYLQMNSLKPEDTAVYYCAAVFYGFVGYYNEDYWGQGTQVTVSS | low polyreactivity |
| QVQLVESGGGLVQAGGSLRLSCAASGGIFVFYGLGWYRQAPGKERELVAAINGNGDDTYYADSVKGRFTISRDNAKNTVYLQMNSLKPEDTAVYYCAAESRGDGDGYWGQGTQVTVSS | low polyreactivity |
| QVQLVESAARLVQAGGSLRLSCAASGFTFKKYAMGWYRQAPGKARELVASITWSGGSTSYADSVKGRFTISRDTAKNTVYLLMNSLKPEDTAVYYCAAATFVYRLRYNRFDYWGQGTQETVSS | high polyreactivity |
| QVQLVESGGGLVQAGGSLRLSCAASGGILYYYAMGWYRQAPGKERELVAGISVRGGRTNYADSVKGRFTISRDNAKNTVYLQMNSLKPEDTAVYYCAAETLYTSGYGSWGQGTQVTVSS | low polyreactivity |
| QVQLVESGGGLVQAGGSLRLSCAASGSIFPVNTMGWYRQAPGKERELVAAITQRGGRTYYADSVKGRFTISRDNAKNTVYFQMNSLKPEDTAVYYCNRDLGAGGYDYWGQGTQVTVSS | low polyreactivity |
| QVQLVESGGGLVQAGGSLRLSCAASGRIFSRYAMGWYRQAPGKERELVAAINWSGGSTYYADSVKGRFTISRDNAKNTVYLQMNSLKPEDTAVYYCAADIYPLAIGAFRDDYWGQGTQVTVSS | low polyreactivity |
| QVQHVESGGGLVQAGGSLRLTCAASGTIFRYYTMRWYRQAPGKERELVASISRGGNTYYADSVKGRFTISRENAKNTVYLPMNSLKPEDTAVSYCAALPGSFFQAHFYYWGQGTQVTVSS | low polyreactivity |
